The results in this text go back to patent US20240270860A1.

This assay deals with T1, S03933.
T1 chain: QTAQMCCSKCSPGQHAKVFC
The assay is described as follows: linear peptide ELISA; Affinity +. As to conditions: remark: other sources report otherwise.

B1: antagonistic TNFR2 antibody TNFRAB1 (antibody, V domains shown)
VH: EVQLQESGGGLVKPGGSLKLSCAASGFTFSSYVMSWVRQTPEKRLEWVATISSGGSYTYYPDSVKGRFTISRDNAKNTLYLQMSSLRSEDTAMYYCARQRVDGYSSYWYFDVWGAGTAVTVSS
VL: DIVLTQSPAIMSASPGEKVTITCSASSSVYYMYWFQQKPGTSPKLWIYSTSNLASGVPVRFSGSGSGTSYSLTISRMEAEDAATYYCQQRRNYPYTFGGGTKLEIKRA
As to B1, the Reading stood at 0.1.
